# Reference: the supplement of paper PMC9112550, “Optimization of the antimicrobial peptide Bac7 by deep mutational scanning” (BMC Biology, 2022)
# Test system: Escherichia coli TOP10
# Test: shrunken log2 fold change of peptide-encoding DNA abundance (4.5 h post-induction vs induction); higher = less antimicrobial activity (less host growth inhibition)
# Details: time post-induction: 4.5 h; library: site-saturation at positions 5, 18, 19, 20
# 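Note: peptides expressed intracellularly from a pBAD plasmid library in pooled LB shake-flask culture, induced with 0.3% L-arabinose, DNA abundance read by NGS, three biological replicates, DESeq2 with apeglm shrinkage.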
row,Sequence,shrunken log2 fold change
1,RRIRFRPPRLPRPRPRPMINPRP,-0.208
2,RRIRHRPPRLPRPRPRPTLDPRP,0.0219
3,RRIRTRPPRLPRPRPRPRKHPRP,-0.166
4,RRIRFRPPRLPRPRPRPQENPRP,0.133
5,RRIRGRPPRLPRPRPRPRLSPRP,0.313
6,RRIRTRPPRLPRPRPRPSFDPRP,-0.365
7,RRIRRRPPRLPRPRPRPPDFPRP,-0.079
8,RRIRGRPPRLPRPRPRPHLGPRP,0.427
9,RRIRMRPPRLPRPRPRPQSRPRP,0.328
10,RRIRGRPPRLPRPRPRPVWKPRP,0.113
11,RRIRWRPPRLPRPRPRPFTIPRP,-0.212
12,RRIRCRPPRLPRPRPRPPQKPRP,0.627
13,RRIRCRPPRLPRPRPRPNWDPRP,-0.185
14,RRIRTRPPRLPRPRPRPWNEPRP,0.00902
15,RRIRQRPPRLPRPRPRPLRIPRP,0.116
16,RRIRPRPPRLPRPRPRPIHPPRP,0.172
17,RRIRGRPPRLPRPRPRPEDQPRP,0.0373
18,RRIRPRPPRLPRPRPRPEENPRP,0.163
19,RRIRVRPPRLPRPRPRPLWMPRP,-0.523
20,RRIRLRPPRLPRPRPRPGCDPRP,0.261
21,RRIRFRPPRLPRPRPRPHRSPRP,-0.222
22,RRIRRRPPRLPRPRPRPGKCPRP,-0.283
23,RRIRTRPPRLPRPRPRPTNVPRP,0.118
24,RRIRRRPPRLPRPRPRPIEDPRP,-0.089
25,RRIRSRPPRLPRPRPRPTSAPRP,0.321

row,Sequence,shrunken log2 fold change
1,RRIRNRPPRLPRPRPRPMSFPRP,-0.0524
2,RRIRSRPPRLPRPRPRPVEPPRP,-0.0608
3,RRIRTRPPRLPRPRPRPDNDPRP,0.0177
4,RRIRRRPPRLPRPRPRPFATPRP,0.814
5,RRIRVRPPRLPRPRPRPRAKPRP,0.16
6,RRIRPRPPRLPRPRPRPSMCPRP,-0.0117
7,RRIRLRPPRLPRPRPRPQPIPRP,0.0892
8,RRIRARPPRLPRPRPRPLTIPRP,0.0223
9,RRIRGRPPRLPRPRPRPHVLPRP,-0.00476
10,RRIRKRPPRLPRPRPRPPHMPRP,0.208
11,RRIRHRPPRLPRPRPRPKDNPRP,-0.201
12,RRIRNRPPRLPRPRPRPVPSPRP,0.155
13,RRIRRRPPRLPRPRPRPKYVPRP,-0.194
14,RRIRGRPPRLPRPRPRPNSQPRP,0.271
15,RRIRERPPRLPRPRPRPTARPRP,0.258
16,RRIRERPPRLPRPRPRPVQIPRP,0.27
17,RRIRARPPRLPRPRPRPWAQPRP,0.0167
18,RRIRKRPPRLPRPRPRPCQVPRP,-0.00846
19,RRIRTRPPRLPRPRPRPAHHPRP,-0.0336
20,RRIRMRPPRLPRPRPRPRTYPRP,-0.00485
21,RRIRRRPPRLPRPRPRPCCMPRP,-0.18
22,RRIRIRPPRLPRPRPRPANKPRP,-0.222
23,RRIRMRPPRLPRPRPRPLLTPRP,2.33
24,RRIRFRPPRLPRPRPRPVRFPRP,0.429
25,RRIRCRPPRLPRPRPRPRIQPRP,-0.196

row,Sequence,shrunken log2 fold change
1,RRIRVRPPRLPRPRPRPIHKPRP,-0.203
2,RRIRKRPPRLPRPRPRPWVPPRP,0.481
3,RRIRTRPPRLPRPRPRPERNPRP,-0.201
4,RRIRLRPPRLPRPRPRPLAKPRP,0.0773
5,RRIRNRPPRLPRPRPRPEEAPRP,0.612
6,RRIRKRPPRLPRPRPRPEHGPRP,0.0647
7,RRIRNRPPRLPRPRPRPSNYPRP,-0.791
8,RRIRQRPPRLPRPRPRPVRWPRP,0.428
9,RRIRARPPRLPRPRPRPKNFPRP,0.251
10,RRIRDRPPRLPRPRPRPRHSPRP,-0.043
11,RRIRKRPPRLPRPRPRPEKYPRP,-0.0153
12,RRIRMRPPRLPRPRPRPSRKPRP,0.148
13,RRIRRRPPRLPRPRPRPWGEPRP,2.96
14,RRIRCRPPRLPRPRPRPPHKPRP,0.68
15,RRIRLRPPRLPRPRPRPSKHPRP,-0.642
16,RRIRERPPRLPRPRPRPQWGPRP,-0.252
17,RRIRHRPPRLPRPRPRPIFHPRP,-0.155
18,RRIRWRPPRLPRPRPRPGLAPRP,0.505
19,RRIRPRPPRLPRPRPRPSTIPRP,-0.552
20,RRIRTRPPRLPRPRPRPPFGPRP,0.0407
21,RRIRWRPPRLPRPRPRPETAPRP,0.177
22,RRIRIRPPRLPRPRPRPKGIPRP,-0.13
23,RRIRMRPPRLPRPRPRPYSLPRP,-0.129
24,RRIRTRPPRLPRPRPRPKAHPRP,0.182
25,RRIRRRPPRLPRPRPRPEPFPRP,-0.0448

row,Sequence,shrunken log2 fold change
1,RRIRNRPPRLPRPRPRPCNRPRP,-0.00992
2,RRIRPRPPRLPRPRPRPTFCPRP,0.0727
3,RRIRHRPPRLPRPRPRPGFGPRP,0.384
4,RRIRMRPPRLPRPRPRPLWSPRP,-0.0373
5,RRIRVRPPRLPRPRPRPIPMPRP,-0.094
6,RRIRYRPPRLPRPRPRPKNCPRP,-0.0167
7,RRIRKRPPRLPRPRPRPILFPRP,-0.0861
8,RRIRHRPPRLPRPRPRPHMQPRP,-0.616
9,RRIRTRPPRLPRPRPRPCNRPRP,-0.144
10,RRIRYRPPRLPRPRPRPWFPPRP,-0.523
11,RRIRERPPRLPRPRPRPHTPPRP,0.229
12,RRIRERPPRLPRPRPRPFFKPRP,-0.37
13,RRIRIRPPRLPRPRPRPLGMPRP,-0.268
14,RRIRQRPPRLPRPRPRPELEPRP,-0.0293
15,RRIRWRPPRLPRPRPRPWPEPRP,0.167
16,RRIRCRPPRLPRPRPRPQIYPRP,-0.579
17,RRIRSRPPRLPRPRPRPRSSPRP,-0.269
18,RRIRTRPPRLPRPRPRPMTCPRP,-0.0817
19,RRIRRRPPRLPRPRPRPVCCPRP,0.158
20,RRIRPRPPRLPRPRPRPAGAPRP,0.309
21,RRIRCRPPRLPRPRPRPVMCPRP,-0.127
22,RRIRKRPPRLPRPRPRPFAPPRP,0.792
23,RRIRQRPPRLPRPRPRPYDIPRP,0.0432
24,RRIRWRPPRLPRPRPRPIMFPRP,-0.189
25,RRIRNRPPRLPRPRPRPWSLPRP,-0.0288

row,Sequence,shrunken log2 fold change
1,RRIRARPPRLPRPRPRPEFDPRP,1.44
2,RRIRWRPPRLPRPRPRPEVKPRP,0.21
3,RRIRIRPPRLPRPRPRPTDGPRP,-0.00546
4,RRIRGRPPRLPRPRPRPSRMPRP,0.22
5,RRIRQRPPRLPRPRPRPITAPRP,-0.503
6,RRIRYRPPRLPRPRPRPGFNPRP,-0.46
7,RRIRQRPPRLPRPRPRPEEQPRP,0.39
8,RRIRRRPPRLPRPRPRPHNTPRP,-0.115
9,RRIRQRPPRLPRPRPRPTQPPRP,0.356
10,RRIRNRPPRLPRPRPRPGRWPRP,0.762
11,RRIRVRPPRLPRPRPRPKQVPRP,-0.0801
12,RRIRSRPPRLPRPRPRPFNHPRP,-1.19
13,RRIRWRPPRLPRPRPRPTRSPRP,0.723
14,RRIRCRPPRLPRPRPRPRTAPRP,0.304
15,RRIRMRPPRLPRPRPRPNPAPRP,0.201
16,RRIRNRPPRLPRPRPRPIVCPRP,-0.301
17,RRIRMRPPRLPRPRPRPGILPRP,0.0644
18,RRIRMRPPRLPRPRPRPCWEPRP,-0.0572
19,RRIRGRPPRLPRPRPRPMLDPRP,0.485
20,RRIRSRPPRLPRPRPRPGCFPRP,0.225
21,RRIRWRPPRLPRPRPRPEWEPRP,0.00016
22,RRIRDRPPRLPRPRPRPAPAPRP,0.661
23,RRIRVRPPRLPRPRPRPGFCPRP,0.352
24,RRIRARPPRLPRPRPRPCLKPRP,-0.0264
25,RRIRSRPPRLPRPRPRPQCPPRP,-0.172

row,Sequence,shrunken log2 fold change
1,RRIRFRPPRLPRPRPRPDRKPRP,0.00132
2,RRIRYRPPRLPRPRPRPHWSPRP,-0.318
3,RRIRLRPPRLPRPRPRPKKTPRP,0.0684
4,RRIRLRPPRLPRPRPRPCHQPRP,-0.234
5,RRIRRRPPRLPRPRPRPQCCPRP,0.49
6,RRIRGRPPRLPRPRPRPPPSPRP,1.22
7,RRIRFRPPRLPRPRPRPMPVPRP,-0.0124
8,RRIRARPPRLPRPRPRPGVSPRP,0.559
9,RRIRCRPPRLPRPRPRPCGLPRP,0.0617
10,RRIRSRPPRLPRPRPRPEQYPRP,-0.256
11,RRIRQRPPRLPRPRPRPIQFPRP,-0.282
12,RRIRARPPRLPRPRPRPDLCPRP,0.393
13,RRIRSRPPRLPRPRPRPVIGPRP,0.0912
14,RRIRARPPRLPRPRPRPATQPRP,0.437
15,RRIRKRPPRLPRPRPRPYNGPRP,-0.00151
16,RRIRLRPPRLPRPRPRPCCPPRP,-0.196
17,RRIRFRPPRLPRPRPRPNGHPRP,-0.0454
18,RRIRVRPPRLPRPRPRPEQTPRP,-0.0332
19,RRIRYRPPRLPRPRPRPAKEPRP,0.0142
20,RRIRYRPPRLPRPRPRPVNQPRP,-0.058
21,RRIRTRPPRLPRPRPRPSFFPRP,-0.256
22,RRIRYRPPRLPRPRPRPERGPRP,-0.0437
23,RRIRSRPPRLPRPRPRPSRAPRP,0.281
24,RRIRIRPPRLPRPRPRPSHYPRP,-0.528
25,RRIRQRPPRLPRPRPRPNHKPRP,-0.493
